B1: minF1; the commonest letter at each place (parent)
chain: GAGACCGCAACTGAAAAGTTGTTATCAGAAATGGATGGGTTGAATTTCTGCACGTAGAAGCAAAAGGC

Variants of: B1
Assay: fraction ligated after 30 min (ligated reads / total reads); higher = more ligase activity
Settings: with F1*subA RNA substrate (template-directed ligation), 42 °C
Procedure, shortened: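 Using barcoded primers for reverse transcription and a MiSeq for sequencing, gel-separated ligated and unligated RNAs of minimized ligase ribozyme variants were read, with core-base filtering at quality ≥30. Fraction ligated per variant was defined as ligated reads over total reads.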

Variant | fraction ligated
T23C A35T | 0.00507
A24T A44G | 0.0057
A24T A44C | 0.00276
A24T A44T | 0.00772
A24G C26T | 0.00563
A24G C26A | 0.0171
A24G C26G | 0.00544
T23C G37T | 0.0164
T23C G37C | 0.00507
T23C G37A | 0.00595
T23C A44C | 0.0323
T23C A44G | 0.0605
T23C A44T | 0.0534
T23G G42C | 0.00862
T23G G42A | 0.204
T23G G42T | 0.0401
A24T G28C | 0.0438
A24T G28A | 0.0366
A24T G28T | 0.0703
T23A G34A | 0.0227
T23A G34T | 0.00436
T23A G34C | 0.00115
A24T A31T | 0.00682
A24T A31G | 0.00616

Variant | fraction ligated
A24T A31C | 0.00611
A24T A43T | 0.00827
A24T A43G | 0.00117
A24T A43C | 0.00315
A24T T32G | 0.00134
A24T T32A | 0.00395
A24T T32C | 0.000877
A24G G34T | 0.000849
A24G G34A | 0.00498
A24G G34C | 0.00145
T25A G34C | 0.0033
T25A G34A | 0.00806
T25A G34T | 0.00319
T23G G28A | 0.798
T23G G28T | 0.803
T23G G28C | 0.8
T25A A43G | 0.00383
T25A A43T | 0.00628
T25A A43C | 0.00284
A24T T36C | 0.00304
A24T T36G | 0.0114
A24T T36A | 0.0205
T23A A29T | 0.156
T23A A29G | 0.189

Variant | fraction ligated
T23G G33C | 0.73
T23G G33T | 0.556
T23G G33A | 0.801
T23G T32A | 0.084
T23G T32C | 0.00942
T23G T32G | 0.0266
T23G C26T | 0.434
T23G C26A | 0.123
T23G C26G | 0.0528
A24T G37C | 0.00436
A24T G37T | 0.00399
A24T G37A | 0.00164
T23A T32G | 0.000962
T23A T32A | 0.00638
T23A T32C | 0.00262
A24C A44C | 0.00359
A24C A44G | 0.00645
A24C A44T | 0.0123
T23C T36A | 0.0123
T23C T36C | 0.00904
T23C T36G | 0.0318
T25A G42C | 0.00199
T25A G42A | 0.00144
T23C G42T | 0.00449

Variant | fraction ligated
T23C G42C | 0.00249
T23C G42A | 0.0247
T23A T36G | 0.0346
T23A T36C | 0.012
T23A T36A | 0.0114
A24C G37T | 0.00693
A24C G37C | 0.00569
A24C G37A | 0.00687
T23C G34T | 0.00428
T23C G34C | 0.0023
T23C G34A | 0.0166
T23A A31C | 0.181
T23A A31G | 0.264
T23A A31T | 0.325
T23C A43G | 0.00398
T23C A43C | 0.00429
T23C A43T | 0.00662
A24T T25C | 0.0313
A24T T25G | 0.00899
A24T T25A | 0.0063
T23A C26T | 0.0201
T23A C26A | 0.00635
T23A C26G | 0.00512
A24C T25A | 0.0142

Variant | fraction ligated
A24C T25G | 0.0197
A24C T25C | 0.0235
A24C G34C | 0.00204
A24C G34T | 0.00294
A24C G34A | 0.0317
A24T A29C | 0.0116
A24T A29G | 0.00599
A24T A29T | 0.0058
T23A G42C | 0.00428
T23A G42A | 0.0065
T23A G42T | 0.003
T23G G37C | 0.00547
T23G G37T | 0.00959
T23G G37A | 0.00471
A24C A43G | 0.00364
A24C A43T | 0.0035
A24C A43C | 0.0036
A24C C26T | 0.0975
A24C C26G | 0.032
A24C C26A | 0.0482
A24G T25G | 0.00212
A24G T25C | 0.01
A24G T25A | 0.00617
T23C A24T | 0.0194

Variant | fraction ligated
T23C A24G | 0.0315
T23C A24C | 0.0187
A24C G28T | 0.0617
A24C G28C | 0.0343
A24C G28A | 0.0266
T23C G28C | 0.224
T23C G28T | 0.326
T23C G28A | 0.242
A24T G33T | 0.0124
A24T G33A | 0.0223
A24T G33C | 0.00781
A24T A30C | 0.00942
A24T A30G | 0.0104
A24T A30T | 0.00805
A24C A31C | 0.0126
A24C A31T | 0.0211
A24C A31G | 0.0441
T23G A31G | 0.82
T23G A31C | 0.783
T23G A31T | 0.826
A24C T36C | 0.0109
A24C T36A | 0.0726
A24C T36G | 0.438
A24C T32G | 0.00553

Variant | fraction ligated
A24C T32C | 0.00194
A24C T32A | 0.00211
A24G A27C | 0.254
A24G A27G | 0.0437
A24G A27T | 0.231
T23C A30T | 0.221
T23C A30G | 0.391
T23C A30C | 0.21
T23G A24T | 0.104
T23G A24C | 0.0996
T23G A24G | 0.00157
T23A A43G | 0.00242
T23A A43C | 0.00617
T23A A43T | 0.00536
T23G A30T | 0.806
T23G A30C | 0.789
T23G A30G | 0.803
A24G T36A | 0.0103
A24G T36G | 0.00746
A24G T36C | 0.0933
T23A A30C | 0.126
T23A A30T | 0.132
T23A A30G | 0.358

Reference: the supplement of paper PMC6755084
